Measurements reported in US7081343.

Target: T7-RelA, Q04206
Sequence (Q04206 whole entry): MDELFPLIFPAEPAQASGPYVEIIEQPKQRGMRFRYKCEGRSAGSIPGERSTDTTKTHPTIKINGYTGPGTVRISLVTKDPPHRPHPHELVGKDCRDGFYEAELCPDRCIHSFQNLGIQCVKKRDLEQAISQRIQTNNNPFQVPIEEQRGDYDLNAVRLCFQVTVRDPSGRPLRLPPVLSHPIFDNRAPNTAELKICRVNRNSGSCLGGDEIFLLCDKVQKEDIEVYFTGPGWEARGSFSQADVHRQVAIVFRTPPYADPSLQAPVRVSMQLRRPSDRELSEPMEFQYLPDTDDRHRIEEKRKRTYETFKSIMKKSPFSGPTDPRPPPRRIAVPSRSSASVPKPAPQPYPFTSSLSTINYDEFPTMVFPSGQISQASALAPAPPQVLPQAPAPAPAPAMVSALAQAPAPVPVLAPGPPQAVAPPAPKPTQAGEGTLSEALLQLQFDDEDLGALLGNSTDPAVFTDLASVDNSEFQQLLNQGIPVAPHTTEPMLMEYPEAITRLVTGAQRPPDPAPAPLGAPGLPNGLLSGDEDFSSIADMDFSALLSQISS

B1: P/CAF (protein)
chain: MSEAGGAGPGGCGAGAGAGAGPGALPPQPAALPPAPPQGSPCAAAAGGSGACGPATAVAAAGTAEGPGGGGSARIAVKKAQLRSAPRAKKLEKLGVYSACKAEESCKCNGWKNPNPSPTPPRADLQQIIVSLTESCRSCSHALAAHVSHLENVSEEEMNRLLGIVLDVEYLFTCVHKEEDADTKQVYFYLFKLLRKSILQRGKPVVEGSLEKKPPFEKPSIEQGVNNFVQYKFSHLPAKERQTIVELAKMFLNRINYWHLEAPSQRRLRSPNDDISGYKENYTRWLCYCNVPQFCDSLPRYETTQVFGRTLLRSVFTVMRRQLLEQARQEKDKLPLEKRTLILTHFPKFLSMLEEEVYSQNSPIWDQDFLSASSRTSQLGIQTVINPPPVAGTISYNSTSSSLEQPNAGSSSPACKASSGLEANPGEKRKMTDSHVLEEAKKPRVMGDIPMELINEVMSTITDPAAMLGPETNFLSAHSARDEAARLEERRGVIEFHVVGNSLNQKPNKKILMWLVGLQNVFSHQLPRMPKEYITRLVFDPKHKTLALIKDGRVIGGICFRMFPSQGFTEIVFCAVTSNEQVKGYGTHLMNHLKEYHIKHDILNFLTYADEYAIGYFKKQGFSKEIKIPKTKYVGYIKDYEGATLMGCELNPRIPYTEFSVIIKKQKEIIKKLIERKQAQIRKVYPGLSCFKDGVRQIPIESIPGIRETGWKPSGKEKSKEPRDPDQLYSTLKSILQQVKSHQSAWPFMEPVKRTEAPGYYEVIRFPMDLKTMSERLKNRYYVSKKLFMADLQRVFTNCKEYNPPESEYYKCANILEKFFFSKIKEAGLIDK
- acetylation of T7-RelA (anti-T7 immunoprecipitation, anti-acetylated lysine blot): P/CAF failed to mediate this response
